# Reference: publication PMC10334339
# Substrate: O=c1[nH]c(=O)n([C@H]2C[C@H](O)[C@@H](COP(=O)(O)O)O2)cc1CO
# Test: purified protein
# Assay type: biochemical, Homo sapiens
protein,measurement,value
2′-Deoxynucleoside 5′-monophosphate N-glycosidase 1 (DNPH1) (Homo sapiens) (protein) AAAMVPGRSESWERGEPGRPALYFCGSIRGGREDRTLYERIVSRLRRFGTVLTEHVAAAELGARGEEAAGGDRLIHEQDLEWLQQADVVVAEVTQPSLGVGYELGRAVAFNKRILCLFRPQSGRVLSAMIRGAADGSRFQVWDYEEGEVEALLDRYFEADPPGQVAASPDPTT,Km,6.3 ± 0.5 µM
